In patent US20230220031A1 (Stanford University, published 2023):

Tests used:
[1] = molecular target: T1, human IL-12Rβ1 on human T cells and NK cells (human, UniProt P42701 24-662); assay: flow cytometry, 200 nM human p40 tetramer (streptavidin-AF647) against streptavidin alone, human PBMC: NK cells and CD8+ T cells ex vivo and CD8+ T cell blasts
T1 construct: whole, on cells

[2] = molecular target: T2, human IL-12Rβ1 (soluble, SPR analyte) (UniProt P42701 24-545, limits assumed); assay: SPR, IL-12Rβ1 over immobilized IL-12p40, steady state affinity model
T2 construct: also called IL-12 receptor beta 1

B1: human p40 tetramer (biotinylated human IL-12p40 on streptavidin-AF647) (ligand)
chain: IWELKKDVYVVELDWYPDAPGEMVVLTCDTPEEDGITWTLDQSSEVLGSGKTLTIQVKEFGDAGQYTCHKGGEVLSHSLLLLHKKEDGIWSTDILKDQKEPKNKTFLRCEAKNYSGRFTCWWLTTISTDLTFSVKSSRGSSDPQGVTCGAATLSAERVRGDNKEYEYSVECQEDSACPAAEESLPIEVMVDAVHKLKYENYTSSFFIRDIIKPDPPKNLQLKPLKNSRQVEVSWEYPDTWSTPHSYFSLTFCVQVQGKSKREKKDRVFTDKTSATVICRKNASISVRAQDRYYSSSWSEWASVPCSGLNDIFEAQKIEWHEHHHHHH
modifications: biotinylated
notes: also called human p40 tetramers
[1]
  binding result: binds

B2: human IL-12p40 (23-328) with C-terminal AviTag and 6x His (ligand)
chain: IWELKKDVYVVELDWYPDAPGEMVVLTCDTPEEDGITWTLDQSSEVLGSGKTLTIQVKEFGDAGQYTCHKGGEVLSHSLLLLHKKEDGIWSTDILKDQKEPKNKTFLRCEAKNYSGRFTCWWLTTISTDLTFSVKSSRGSSDPQGVTCGAATLSAERVRGDNKEYEYSVECQEDSACPAAEESLPIEVMVDAVHKLKYENYTSSFFIRDIIKPDPPKNLQLKPLKNSRQVEVSWEYPDTWSTPHSYFSLTFCVQVQGKSKREKKDRVFTDKTSATVICRKNASISVRAQDRYYSSSWSEWASVPCSGLNDIFEAQKIEWHEHHHHHH
notes: Immobilized partner in the SPR experiment; also called interleukin-12 subunit p40
[2]
  Kd: 1700 nM
